{
  "source": "patent US20260275319",
  "key": {"[1]": {"target": "T1, (0)KDPGA(10) peptide, M. mazei MtrA-derived", "T1 chain": "KDPGAFDADPLVVEI"}, "[2]": {"target": "T2, (5)KDPGA(10F) peptide, M. mazei MtrA-derived", "T2 chain": "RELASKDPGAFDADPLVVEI"}, "[3]": {"target": "T3, PGA(5) peptide, M. mazei MtrA-derived", "T3 chain": "PGAFDADP"}, "[4]": {"target": "T4, PGA(10F) peptide, M. jannaschii MtrA-derived", "T4 chain": "PGAIDEDPFIIEL"}, "[5]": {"target": "T5, (15)KDPGA(10) peptide, M. jannaschii MtrA-derived, without fluorophore", "T5 chain": "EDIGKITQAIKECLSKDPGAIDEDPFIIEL"}, "[6]": {"target": "T6, M. mazei PGA(15)-Ub with C-terminal His-tag", "T6 chain": "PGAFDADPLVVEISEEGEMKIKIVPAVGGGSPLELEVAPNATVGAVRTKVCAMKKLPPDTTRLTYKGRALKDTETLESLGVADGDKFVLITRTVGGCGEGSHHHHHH"}, "[7]": {"target": "T7, M. mazei Ub-(5)KDPGA(15) with N-terminal His-tag", "T7 chain": "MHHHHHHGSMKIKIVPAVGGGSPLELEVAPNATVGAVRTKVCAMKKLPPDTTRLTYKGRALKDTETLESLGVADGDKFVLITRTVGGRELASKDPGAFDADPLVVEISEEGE"}, "[8]": {"target": "T8, PGA(10) peptide, M. mazei MtrA-derived", "T8 chain": "PGAFDADPLVVEI"}, "[9]": {"target": "T9, PGA(10) peptide, M. jannaschii MtrA-derived", "T9 chain": "PGAIDEDPFIIEL"}, "[10]": {"target": "T10, (15)KDPGA(10F) peptide, M. jannaschii MtrA-derived", "T10 chain": "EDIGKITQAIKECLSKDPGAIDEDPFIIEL"}},
  "data": [
    {"protein": "M. mazei Adriase with C-terminal His-tag (protein) TLVIAFIGKNGAVMAGDMREITFEGEKPDREKLEKELYSGSIVTDEEMQKKAEEFGVKITVADCKEKVSERNGVLVGEVSSAEGGVVKKRRLYASAGNFAIAELINTEMTLTSQGKGSNFIAFGNEFTKQVANKCFKDNWTKKSNLQDAVKILILCMETVARKTASVSKQFMIVQTASNADVLKVVEKDRNCGSHHHHHH", "values": [
      {"measurement": "ligase activity with (0)KDPGA(10) as primary and PGA(15)-Ub as secondary substrate, SDS-PAGE time course", "setting": "[1]", "value": "No Adriase activity was observed with (0)KDPGA(10) or PGA(5) substrates (n.d.; SEQ ID NO: 531 and 529)"},
      {"measurement": "maximum ligation rate, ligation of (5)KDPGA(10F) with PGA(10), Michaelis-Menten fit", "setting": "[2]", "value": "a maximum rate of ~2.25 ligations per enzyme and second"},
      {"measurement": "substrate concentration at half maximal reaction speed, ligation of (5)KDPGA(10F) with PGA(10)", "setting": "[2]", "value": "The half maximal reaction speed is observed at a substrate concentration of ~9 µM each"},
      {"measurement": "ligase activity with PGA(5) as secondary and Ub-(5)KDPGA(15) as primary substrate, SDS-PAGE time course", "setting": "[3]", "value": "No Adriase activity was observed with (0)KDPGA(10) or PGA(5) substrates (n.d.; SEQ ID NO: 531 and 529)"},
      {"measurement": "ligase activity with M. jannaschii (15)KDPGA(10) and PGA(10F) peptides, fluorescent product on SDS-PAGE", "setting": "[4]", "value": "also M. mazei Adriase showed activity when incubated with the M. jannaschii derived peptides"},
      {"measurement": "ligase activity with M. jannaschii (15)KDPGA(10) and PGA(10F) peptides, fluorescent product on SDS-PAGE", "setting": "[5]", "value": "also M. mazei Adriase showed activity when incubated with the M. jannaschii derived peptides"},
      {"measurement": "ligation rate coefficient at 25 µM substrate, ligation of Ub-(5)KDPGA(15) with PGA(15)-Ub", "setting": "[6]", "value": "0.74±0.05", "unit": "sec^-1 at 25 µM"},
      {"measurement": "ligation rate coefficient at 50 µM substrate, ligation of Ub-(5)KDPGA(15) with PGA(15)-Ub", "setting": "[6]", "value": "0.88±0.07", "unit": "sec^-1 at 50 µM"},
      {"measurement": "ligation rate coefficient at 100 µM substrate, ligation of Ub-(5)KDPGA(15) with PGA(15)-Ub", "setting": "[6]", "value": "0.90±0.14 sec^-1 at 100 µM substrate concentration"},
      {"measurement": "maximum rate of the protein-protein ligation of Ub-(5)KDPGA(15) with PGA(15)-Ub", "setting": "[6]", "value": "a maximum rate of 0.92 ligations per enzyme and second"},
      {"measurement": "substrate concentration at the half-maximum rate, ligation of Ub-(5)KDPGA(15) with PGA(15)-Ub", "setting": "[6]", "value": "the half-maximum rate is observed at a substrate concentration of 2.2 µM each"},
      {"measurement": "ligation rate coefficient at 25 µM substrate, ligation of Ub-(5)KDPGA(15) with PGA(15)-Ub", "setting": "[7]", "value": "0.74±0.05", "unit": "sec^-1 at 25 µM"},
      {"measurement": "ligation rate coefficient at 50 µM substrate, ligation of Ub-(5)KDPGA(15) with PGA(15)-Ub", "setting": "[7]", "value": "0.88±0.07", "unit": "sec^-1 at 50 µM"},
      {"measurement": "ligation rate coefficient at 100 µM substrate, ligation of Ub-(5)KDPGA(15) with PGA(15)-Ub", "setting": "[7]", "value": "0.90±0.14 sec^-1 at 100 µM substrate concentration"},
      {"measurement": "maximum rate of the protein-protein ligation of Ub-(5)KDPGA(15) with PGA(15)-Ub", "setting": "[7]", "value": "a maximum rate of 0.92 ligations per enzyme and second"},
      {"measurement": "substrate concentration at the half-maximum rate, ligation of Ub-(5)KDPGA(15) with PGA(15)-Ub", "setting": "[7]", "value": "the half-maximum rate is observed at a substrate concentration of 2.2 µM each"},
      {"measurement": "maximum ligation rate, ligation of (5)KDPGA(10F) with PGA(10), Michaelis-Menten fit", "setting": "[8]", "value": "a maximum rate of ~2.25 ligations per enzyme and second"},
      {"measurement": "substrate concentration at half maximal reaction speed, ligation of (5)KDPGA(10F) with PGA(10)", "setting": "[8]", "value": "The half maximal reaction speed is observed at a substrate concentration of ~9 µM each"}
    ]},
    {"protein": "M. jannaschii Adriase with C-terminal His-tag (protein) SLIICYYGKNGAVIGGDRRQIFFRGSEENRKILEEKLYSGEIKSEEELYKLAEKLNIKIIIEDDREKVRKISDSVVCGEVRSLGIDAKRRRVYATKGKCAIVDILNDTVTNQTIKEGFGIVVLGNRFLKKKAEEELKRTAKLFPMMPIQQIEDAIKEIFEKLKWHPTVSKEYDIYSVNKYEKNFEEVIKKDIESLFKYREQLRKQLIDFGKVMSIVNKIVKNGEIGVIKDGKLHLYDDYIAIDKIDPNPKVFKVVDVEGNFKDGDIVVIENGDMKIKGTNEKVTTKYIIIHKGSHHHHHH", "values": [
      {"measurement": "maximum ligation rate, recombination of (15)KDPGA(10F) with PGA(10), Michaelis-Menten fit", "setting": "[9]", "value": "maximum rate of ~1.4 ligations per enzyme and second"},
      {"measurement": "substrate concentration at half maximal reaction speed, recombination of (15)KDPGA(10F) with PGA(10)", "setting": "[9]", "value": "The half maximal reaction speed is observed at a substrate concentration of 23 µM each"},
      {"measurement": "maximum ligation rate, recombination of (15)KDPGA(10F) with PGA(10), Michaelis-Menten fit", "setting": "[10]", "value": "maximum rate of ~1.4 ligations per enzyme and second"},
      {"measurement": "substrate concentration at half maximal reaction speed, recombination of (15)KDPGA(10F) with PGA(10)", "setting": "[10]", "value": "The half maximal reaction speed is observed at a substrate concentration of 23 µM each"}
    ]}
  ]
}
